# Source: patent publication US20150309057A1, “Giant Liposome Array for High-throughput Lipid-Interaction Screening” (EUROPEAN MOLECULAR BIOLOGY LABORATORY (EMBL), priority 2012, published 2015)
# B1: Hsv2: Hsv2 protein (PROPPIN domain), GFP-tagged fusion (protein, UniProt P50079 1-448, looked up)
# SVP1-like protein 2: MDVRRPIREAVNNRRKPKFLSVSFNQDDSCFSVALENGFRIFNTDPLTSKLSKTFKESATNQSRGTGIGYTRMLYRTNYIALVGGGKRPRHALNKLIIWDDLLQKETITLKFMSSIKDVFLSRIHIVVVLENTIEIFQFQTNPQRICPILDIPPNGSVDYVVCSSKHLQSQASQSQSKILEIIAFPSNKCVGQIQVADLSQIKYNSQNPKESALLPTSIIKAHKNPIKLVRLNRQGTMVATCSVQGTLIRIFSTHNGTLIKEFRRGVDKADIYEMSFSPNGSKLAVLSNKQTLHIFQIFETTNTETNTPDHSRANGSSHPLKNYIPKGLWRPKYLDSVWSICNAHLKNPIFDAHRNDNSGDVTHDNEFYKDRCRIGWCQDSNNREQDDSLVLVWQNSGIWEKFVILEKEQQDSSKTHYSLNESLRNEDTKSAGEPTRWELVRESWREL
# modifications: GFP tag
# notes: Hsv2 protein (PROPPIN domain), GFP-tagged fusion
# B2: Akt PH domain: Akt Pleckstrin Homology (PH) domain (positions 6 to 110), fluorescently labelled, expressed in Escherichia coli (protein, UniProt P31749 6-110, looked up, fragment)
# chain: IVKEGWLHKRGEYIKTWRPRYFLLKNDGTFIGYKERPQDVDQREAPLNNFSVAQCQLMKTERPRPNTFIIRCLQWTTVIERTFHVETPEEREEWTTAIQTVADGL
# modifications: PH domain fluorescent label
# notes: Akt Pleckstrin Homology (PH) domain (positions 6 to 110), fluorescently labelled, expressed in Escherichia coli
# Legend:
# [1] = Liposome array cooperative membrane recruitment (NBI); details: GFP-tagged fusion, cooperative binding
# Source text: FIG. 13: High-throughput image processing and calculation of normalized binding intensity. (a) Image processing pipeline. Multiple images are acquired, one exposure time for Atto647 and multiple exposure times for GFP to capture broad range of binding intensities, from strong (short exp. times) to weak (longer exp. times). All images are then processed with CellProfiler software. After removal of background, the Atto647 image is used for segmentation to obtain a mask representing position of liposome membranes. In parallel the combination of overexposed pixels from both channels (Atto647 and GFP) is removed from every pair of Atto647 and GFP image. Subsequently, a mask is applied to all filtered (i.e. without overexposed pixels) images. Number of pixels matching with the mask and their mean fluorescence intensity is extracted from all images (i.e. both channels and every exposure time). Normalized binding intensity (NBI) is then calculated as a ratio of mean fluorescence intensity from GFP channel and mean fluorescence intensity from Atto647 channel for every pair of images. (b) Image segmentation and liposome counting. […] CellProfiler software is used to segment the image to retrieve a mask representing liposome membranes, and also to search for centers of liposomes that are then used for estimating a number of liposomes analyzed per image. […]
# [2] = Liposome array lipid-binding profile, normalized binding intensity (NBI); details: GFP-tagged fusion, cell lysate, 20 min incubation
# Source text: (§1) FIG. 13: High-throughput image processing and calculation of normalized binding intensity. (a) Image processing pipeline. Multiple images are acquired, one exposure time for Atto647 and multiple exposure times for GFP to capture broad range of binding intensities, from strong (short exp. times) to weak (longer exp. times). All images are then processed with CellProfiler software. After removal of background, the Atto647 image is used for segmentation to obtain a mask representing position of liposome membranes. In parallel the combination of overexposed pixels from both channels (Atto647 and GFP) is removed from every pair of Atto647 and GFP image. Subsequently, a mask is applied to all filtered (i.e. without overexposed pixels) images. Number of pixels matching with the mask and their mean fluorescence intensity is extracted from all images (i.e. both channels and every exposure time). Normalized binding intensity (NBI) is then calculated as a ratio of mean fluorescence intensity from GFP channel and mean fluorescence intensity from Atto647 channel for every pair of images. […] CellProfiler software is used to segment the image to retrieve a mask representing liposome membranes, and also to search for centers of liposomes that are then used for estimating a number of liposomes analyzed per image. […] Fluorescence signal was analysed via a high-throughput image analysis pipeline (FIG. 13). […]
# [3] = as above; details: GFP-tagged fusion, cell lysate, 20 min incubation; remark: listed apart in the source
# Source text: as §1
# [4] = Akt PH domain binding to liposome array, wide-field fluorescence microscopy; details: E. coli lysate with fluorescently labelled domain, 30 minutes incubation, PBS wash
# Source text: (§2) The Akt Pleckstrin Homology (PH) domain (positions 6 to 110) is known to specifically bind to PI-(3,4)-P2 and PI-(3,4,5)-P3 and is thus, used as a model system to evaluate the specificity and sensitivity of assays performed using the liposome array. The fluorescently labelled Akt PH domain is expressed in Escherichia coli, cells are lysed by sonication and after a centrifugation at 10000 g, supernantant is recovered and injected in the microchip. Several liposome arrays each comprising liposomes formed from different lipids are produced. Liposomes either comprised POPC only, or a […] mol:mol mixture of POPC:DOPS, POPC:PI3P, POPC:PI4P, POPC:PI(3,4)P2, POPC:PI(3,5)P2, POPC:PI(4,5)P2, POPC:PI(3,4,5)P3 (all of which are purchased from Avanti polar lipids) as shown in FIG. 11(a) to (h), respectively.
# (§3) E. coli lysate comprising the fluorescently labelled Akt PH domain is applied to the liposome array and incubated 30 minutes and washed with PBS buffer before imaging.
# [5] = as above; details: E. coli lysate with fluorescently labelled domain, 30 minutes incubation, PBS wash; remark: listed apart in the source
# Source text: as §2, §3
# [6] = Liposome array lipid-binding profile, normalized binding intensity (NBI); details: GFP-tagged fusion, cell lysate, 20 min incubation; remark: listed apart in the source
# Source text: as §1
Molecule,membrane recruitment [1],interaction confirmed by NBI profile [2],interaction confirmed by NBI profile [3],binding to liposomes [4],binding to liposomes [5],interaction confirmed by NBI profile [6]
"Pkcγ: protein kinase C-γ, GFP-tagged fusion",calcium-dependent recruitment,–,–,–,–,–
B1,–,interactions,interactions,–,–,–
B2,–,interactions,–,binds,binds,interactions
